Assay results as given in patent publication US20210388102A1 (IMMUNOGEN, published 2021).
Where a chain is given by its changes, count along the chain named. Numbers in names are those of the source.

T1: human ADAM9 (huADAM9) on cells (human, UniProt Q13443 206-819)
T1 construct: The pro-domain is said to be cleaved (Arg-205/Ala-206) in the mature protein; also called Cho-K/huADAM9; Cho-K/hu ADAM9.2
T1 sequence: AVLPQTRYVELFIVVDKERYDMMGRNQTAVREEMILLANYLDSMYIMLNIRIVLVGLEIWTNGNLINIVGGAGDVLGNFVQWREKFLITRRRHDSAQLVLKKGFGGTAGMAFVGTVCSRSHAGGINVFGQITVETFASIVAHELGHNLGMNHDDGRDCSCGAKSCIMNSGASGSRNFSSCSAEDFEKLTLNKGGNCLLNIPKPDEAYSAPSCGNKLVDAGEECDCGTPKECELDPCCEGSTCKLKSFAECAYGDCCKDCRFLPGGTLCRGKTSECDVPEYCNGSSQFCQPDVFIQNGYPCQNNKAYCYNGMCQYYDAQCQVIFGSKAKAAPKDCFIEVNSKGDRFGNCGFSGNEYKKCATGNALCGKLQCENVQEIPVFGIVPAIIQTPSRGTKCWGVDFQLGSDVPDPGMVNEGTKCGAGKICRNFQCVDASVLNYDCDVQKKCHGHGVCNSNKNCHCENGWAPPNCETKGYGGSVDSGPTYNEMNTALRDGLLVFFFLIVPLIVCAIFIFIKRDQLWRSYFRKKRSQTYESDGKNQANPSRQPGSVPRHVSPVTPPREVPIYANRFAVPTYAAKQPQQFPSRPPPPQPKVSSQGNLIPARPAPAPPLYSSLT

T2: cynomolgus monkey ADAM9 (cynoADAM9) on cells (cynomolgus monkey, UniProt Q13443 206-819 (human entry))
T2 construct: also called Cho-K/cynoADAM9 clone 2; Cho-K/cynoADAM9 clone #16
T2 chain: T1 sequence with V69A, Q130H, G421D, V441I, S521R, G546V, A569P

T3: His-tagged soluble human ADAM9 (shADAM9-His) (human, UniProt Q13443 206-697)
T3 construct: Contains an extracellular portion of human ADAM9; also called huADAM9-His; His peptide-tagged soluble huADAM9
T3 sequence: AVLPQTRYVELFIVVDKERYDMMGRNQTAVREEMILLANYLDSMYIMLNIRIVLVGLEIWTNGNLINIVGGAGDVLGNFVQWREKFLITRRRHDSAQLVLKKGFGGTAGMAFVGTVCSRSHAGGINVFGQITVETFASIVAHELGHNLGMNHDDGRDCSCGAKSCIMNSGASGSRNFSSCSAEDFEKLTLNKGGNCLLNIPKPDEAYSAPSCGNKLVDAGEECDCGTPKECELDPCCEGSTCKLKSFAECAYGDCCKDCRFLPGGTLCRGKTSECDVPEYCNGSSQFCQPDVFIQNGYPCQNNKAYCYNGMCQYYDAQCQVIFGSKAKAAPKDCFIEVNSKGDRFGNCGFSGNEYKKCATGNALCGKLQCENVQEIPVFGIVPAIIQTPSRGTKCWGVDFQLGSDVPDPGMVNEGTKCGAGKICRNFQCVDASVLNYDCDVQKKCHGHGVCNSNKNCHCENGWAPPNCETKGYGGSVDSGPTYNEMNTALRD

B1: chMAB-A (antibody, V domains shown)
VH: QVQLQQPGAELVKPGASVKLSCKASGYTFTSYWMHWVKQRPGQGLEWIGEIIPINGHTNYNEKFKSKATLTLDKSSSTAYMQLSSLASEDSAVYYCARGGYYYYGSRDYFDYWGQGTTLTVSS
VL: DIVLTQSPASLAVSLGQRATISCKASQSVDYDGDSYMNWYQQIPGQPPKLLIYAASDLESGIPARFSGSGSGTDFTLNIHPVEEEDAATYYCQQSHEDPFTFGGGTKLEIK
notes: also called chimeric version of MAB-A; chimeric chMAB-A
B2: hMAB-A (2C.2) (antibody, human IgG1, kappa, V domains shown)
VH: EVQLVESGGGLVKPGGSLRLSCAASGFTFSSYWMHWVRQAPGKGLEWVGEIIPIFGHTNYNEKFKSRFTISLDNSKNTLYLQMGSLRAEDTAVYYCARGGYYYYPRFGWLDYWGQGTTVTVSS
VL: DIVMTQSPDSLAVSLGERATISCKASQSVDYSGDSYMNWYQQKPGQPPKLLIYAASDLESGIPARFSGSGSGTDFTLTISSLEPEDFATYYCQQSHEDPFTFGQGTKLEIKR
notes: IgG1 kappa; also called MAB-A VH(2C); MAB-A VH(2C.2)
B3: hMAB-A (4.4) (antibody, V domains shown)
VH: B2 VH with M34I, K63R, K65Q, S66G, P105G, R106S, F107R, G108D, W109Y, L110F
VL: DIVMTQSPDSLAVSLGERATISCRASQSVDYSGDSYLNWYQQKPGQPPKLLIYAASDLESGIPARFSGSGSGTDFTLTISSLEPEDFATYYCQQSYSTPFTFGQGTKLEIK
notes: also called hMAB-A VH(4)/hMAB-A VL(4)
B4: hMAB-A (2.3) (antibody, V domains shown)
VH: B2 VH with P105G, R106S, F107R, G108D, W109Y, L110F
VL: B3 VL with L37M, Y96H, S97E, T98D
notes: also called hMAB-A VH(2)/hMAB-A VL(3)
B5: hMAB-A (2I.2)(AA/C) (antibody)
heavy: EVQLVESGGGLVKPGGSLRLSCAASGFTFSSYWMHWVRQAPGKGLEWVGEIIPIFGHTNYNEKFKSRFTISLDNSKNTLYLQMGSLRAEDTAVYYCARGGYYYYPRQGFLDYWGQGTTVTVSSASTKGPSVFPLAPSSKSTSGGTAALGCLVKDYFPEPVTVSWNSGALTSGVHTFPAVLQSSGLYSLSSVVTVPSSSLGTQTYICNVNHKPSNTKVDKRVEPKSCDKTHTCPPCPAPEAAGGPSVFLFPPKPKDTLMISRTPEVTCVVVDVSHEDPEVKFNWYVDGVEVHNAKTKPREEQYNSTYRVVSVLTVLHQDWLNGKEYKCKVSNKALPAPIEKTISKAKGQPREPQVYTLPPSREEMTKNQVSLTCLVKGFYPSDIAVEWESNGQPENNYKTTPPVLDSDGSFFLYSKLTVDKSRWQQGNVFSCSVMHEALHNHYTQKSLCLSPGK
light: DIVMTQSPDSLAVSLGERATISCKASQSVDYSGDSYMNWYQQKPGQPPKLLIYAASDLESGIPARFSGSGSGTDFTLTISSLEPEDFATYYCQQSHEDPFTFGQGTKLEIKRTVAAPSVFIFPPSDEQLKSGTASVVCLLNNFYPREAKVQWKVDNALQSGNSQESVTEQDSKDSTYSLSSTLTLSKADYEKHKVYACEVTHQGLSSPVTKSFNRGEC
notes: Last residue X is lysine or absent; also called L234A/L235A/S442C Fc variant of hMAB-A (2I.2)
B6: hMAB-A(2I.2)-S442C (antibody)
heavy: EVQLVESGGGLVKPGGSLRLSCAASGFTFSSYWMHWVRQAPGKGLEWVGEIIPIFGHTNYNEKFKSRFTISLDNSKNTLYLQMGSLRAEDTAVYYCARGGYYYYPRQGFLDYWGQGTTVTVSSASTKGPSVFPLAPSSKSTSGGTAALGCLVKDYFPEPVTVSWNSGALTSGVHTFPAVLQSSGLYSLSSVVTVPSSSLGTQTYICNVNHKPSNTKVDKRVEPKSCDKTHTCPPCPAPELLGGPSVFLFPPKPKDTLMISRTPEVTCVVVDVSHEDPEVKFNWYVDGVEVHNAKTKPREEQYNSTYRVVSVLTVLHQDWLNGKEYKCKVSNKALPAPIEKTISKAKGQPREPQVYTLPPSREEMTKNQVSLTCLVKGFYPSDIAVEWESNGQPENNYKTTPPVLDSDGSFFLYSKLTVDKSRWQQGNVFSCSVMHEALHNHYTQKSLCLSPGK
light: B5 light
notes: IgG1 kappa with engineered Cys S442C (EU index); also called hMAB-A (2I.2)(C)
B7: hMAB-A (3.3) (antibody, V domains shown)
VH: B2 VH with K63R, K65Q, S66G, P105G, R106S, F107R, G108D, W109Y, L110F
VL: B3 VL with L37M, Y96H, S97E, T98D
notes: also called hMAB-A VH(3)/hMAB-A VL(3)
B8: hMAB-A (2I.2)(AA) (antibody, human IgG1, kappa, L234A L235A)
heavy: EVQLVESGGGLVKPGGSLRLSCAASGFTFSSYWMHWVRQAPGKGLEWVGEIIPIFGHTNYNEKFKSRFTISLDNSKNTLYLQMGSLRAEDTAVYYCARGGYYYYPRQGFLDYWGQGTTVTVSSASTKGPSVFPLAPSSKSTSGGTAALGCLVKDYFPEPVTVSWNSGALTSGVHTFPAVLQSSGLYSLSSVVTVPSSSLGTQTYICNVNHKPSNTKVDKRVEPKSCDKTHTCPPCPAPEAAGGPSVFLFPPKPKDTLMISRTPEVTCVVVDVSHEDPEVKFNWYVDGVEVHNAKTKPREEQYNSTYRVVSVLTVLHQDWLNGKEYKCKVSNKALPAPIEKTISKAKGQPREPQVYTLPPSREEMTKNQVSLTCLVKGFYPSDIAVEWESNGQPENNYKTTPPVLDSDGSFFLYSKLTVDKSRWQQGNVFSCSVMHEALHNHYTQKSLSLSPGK
light: B5 light
notes: Last residue X is lysine or absent; also called L234A/L235A Fc variant of hMAB-A (2I.2)
B9: hMAB-A (1.1) (antibody, V domains shown)
VH: B2 VH with F55N, P105G, R106S, F107R, G108D, W109Y, L110F
VL: B3 VL with R24K, S32D, L37M, Y96H, S97E, T98D
notes: also called hMAB-A VH(1)/hMAB-A VL(1)

Tests used:
[1] = biological target: T1, human ADAM9 (huADAM9) on cells; assay: FACS, 300-19 cells expressing human ADAM9
Description: (§1) To evaluate the consequence of conjugation on antigen binding, the relative binding affinity of each anti-ADAM9 immunoconjugate and its respective unconjugated antibody to ADAM9 was determined by FACS analysis on 300-19 cells ectopically-expressing either human ADAM9 or cynomolgus ADAM9. Briefly, the ADAM9-expressing 300-19 cells were incubated with dilution series of anti-ADAM9 antibodies or immunoconjugates for 30 min @ 4° C. in FACS buffer (PBS, 0.1% BSA, 0.01% NaN₃), Samples were then washed and incubated with fluorescently-labeled secondary antibody for 30 minutes at 4° C. The normalized mean of fluorescence intensity at each concentration was plotted and the EC50 of binding was calculated using a nonlinear regression analysis (GraphPad Prims 4.0).

[2] = biological target: T2, cynomolgus monkey ADAM9 (cynoADAM9) on …; assay: FACS, 300-19 cells expressing cynomolgus ADAM9
Description: as §1

[3] = biological target: T2, cynomolgus monkey ADAM9 (cynoADAM9) on …; assay: FACS, EC50 on 300-19 cynoADAM9 cells over EC50 on 300-19 huADAM9 cells
[4] = biological target: T3, His-tagged soluble human ADAM9 …; assay: SPR (BIACORE), antibody captured on anti-human Fc, shADAM9-His 6.25-100 nM, 1:1 Langmuir
Description: (§2) The kinetics of binding were determined via BIACORE® analysis binding (normalized 1:1 Langmuir binding model).

[5] = biological target: T3, His-tagged soluble human ADAM9 …; assay: SPR (BIACORE), antibody captured, huADAM9-His in flow
Description: as §2

[6] = biological target: T3, His-tagged soluble human ADAM9 …; assay: ELISA: His-tagged soluble huADAM9 (0.5 µg/mL) captured by plate-coated anti-His antibody; serial dilutions of antibody about 0.2-500 ng/mL; abs @450nm
Excerpt: The binding of each Fc variant to huADAM9-His and cynoADAM9-His was examined by ELISA assay.

Binder | EC50 [1] | EC50 [2] | cyno/human (ratio of EC50) [3] | Kd [4] | EC50 (read off the curve) [6] | further results
B1 | 0.41 nM | 112 nM | 273 | 3.6 nM | – | –
B2 | 1.22 nM | 3.8 nM | 3 | – | – | Kd [5]: 1.4 nM; koff [5]: 0.00081 s⁻¹; kon [5]: 590000 M⁻¹ s⁻¹
B3 | – | – | – | 2 nM | – | –
B4 | – | – | – | 1.3 nM | – | –
B5 | – | – | – | – | ~9 ng/mL | –
B6 | 1.33 nM | 3.8 nM | 3 | – | ~9 ng/mL | –
B7 | – | – | – | 1.4 nM | – | –
B8 | – | – | – | – | ~9 ng/mL | –
B9 | – | – | – | 3.5 nM | – | –
